Substrate in data set [1]: CC(=O)Oc1ccc([N+](=O)[O-])cc1
Description: purified protein. The format is biochemical, Tetranychus urticae. As to conditions: 0.1 M phosphate buffer pH 7.5, 30 °C, 1 µg enzyme, 1% acetone.

Substrate in data set [2]: CC(=O)Oc1cccc2ccccc12
Description: purified protein. Particulars: 0.1 M phosphate buffer pH 7.5, 1 µg enzyme, fast blue RR. The format is biochemical, Tetranychus urticae.

B1: CCE58 (Tetranychus urticae) (protein)
chain: TISENVEPELTLSSGSIRGTSVDFRGVKVYQFLGIPFAEPPLNELRFQKPVSKKPWNGVLSVNKWGSACMQPVFPGYNTELHLNEDCLVLNVFTTEAAFQDKQNGKKHKLRPVMVWIHGGSFNYGSANTPDQHDGTPITGLKDVIIVSINYRLGSLGFLQLPEAGVPGNMGLWDQQLALKWVKDNIEHFGGDPNKVTIFGESAGSMSVSAHLVSPQSKGLFTNAIMQSGSIYDLDRWTQPGLVANFTSKIGCISDNYKSCLSNYRFGQFPEADRLTFWPTVDGEFLPHRAEELVSNHTVDPNINVLLGTNANEGAFMLLMKDMVTFHPLNPINLTIPHAKYIFGKLFGKTLIDFYSERYLASLSADDSDSIRLAVTQALGDSIFTCPTYATGRDLIASGVPNVYGYVQTQKPTHTLISVSGQAKWMSNIASHADTFPMVFGHPFNKLDKFKNEDVVLSFLMMDIWTKFAKDGKPPQISHQEWLPWNLSDPIPYPTMVLNSNKIGLIETKSAEFCAKNWPFPLENYYSMDSESGVYAEIE
notes: full-length MR-VL allele, signal peptide removed, codon-optimised, pPICZalphaA secretion in Pichia pastoris X-33, 6xHis tag, Ni-NTA purified, about 75 kDa on SDS-PAGE
For the protein B1, the figures for the Km in the data set “purified protein [1]” and in “purified protein [2]” were 0.379 (±0.028) mM and 0.446 (±0.051) mM, respectively.

These data come from PMC9687926, “High-Resolution Genetic Mapping Combined with Transcriptome Profiling Reveals That Both Target-Site Resistance and Increased Detoxification Confer Resistance to the Pyrethroid Bifenthrin in the Spider Mite Tetranychus urticae” (Biology, 2022).
